Assay [1] addresses T1, human LRP6 extracellular domain (AA 20-1368) tagged with Fc (human IgG1) (human, UniProt O75581 20-1368).
T1 construct: also called human LRP6-Fc; complete human LRP6 extracellular domain; not shown: human IgG1 Fc
T1 sequence: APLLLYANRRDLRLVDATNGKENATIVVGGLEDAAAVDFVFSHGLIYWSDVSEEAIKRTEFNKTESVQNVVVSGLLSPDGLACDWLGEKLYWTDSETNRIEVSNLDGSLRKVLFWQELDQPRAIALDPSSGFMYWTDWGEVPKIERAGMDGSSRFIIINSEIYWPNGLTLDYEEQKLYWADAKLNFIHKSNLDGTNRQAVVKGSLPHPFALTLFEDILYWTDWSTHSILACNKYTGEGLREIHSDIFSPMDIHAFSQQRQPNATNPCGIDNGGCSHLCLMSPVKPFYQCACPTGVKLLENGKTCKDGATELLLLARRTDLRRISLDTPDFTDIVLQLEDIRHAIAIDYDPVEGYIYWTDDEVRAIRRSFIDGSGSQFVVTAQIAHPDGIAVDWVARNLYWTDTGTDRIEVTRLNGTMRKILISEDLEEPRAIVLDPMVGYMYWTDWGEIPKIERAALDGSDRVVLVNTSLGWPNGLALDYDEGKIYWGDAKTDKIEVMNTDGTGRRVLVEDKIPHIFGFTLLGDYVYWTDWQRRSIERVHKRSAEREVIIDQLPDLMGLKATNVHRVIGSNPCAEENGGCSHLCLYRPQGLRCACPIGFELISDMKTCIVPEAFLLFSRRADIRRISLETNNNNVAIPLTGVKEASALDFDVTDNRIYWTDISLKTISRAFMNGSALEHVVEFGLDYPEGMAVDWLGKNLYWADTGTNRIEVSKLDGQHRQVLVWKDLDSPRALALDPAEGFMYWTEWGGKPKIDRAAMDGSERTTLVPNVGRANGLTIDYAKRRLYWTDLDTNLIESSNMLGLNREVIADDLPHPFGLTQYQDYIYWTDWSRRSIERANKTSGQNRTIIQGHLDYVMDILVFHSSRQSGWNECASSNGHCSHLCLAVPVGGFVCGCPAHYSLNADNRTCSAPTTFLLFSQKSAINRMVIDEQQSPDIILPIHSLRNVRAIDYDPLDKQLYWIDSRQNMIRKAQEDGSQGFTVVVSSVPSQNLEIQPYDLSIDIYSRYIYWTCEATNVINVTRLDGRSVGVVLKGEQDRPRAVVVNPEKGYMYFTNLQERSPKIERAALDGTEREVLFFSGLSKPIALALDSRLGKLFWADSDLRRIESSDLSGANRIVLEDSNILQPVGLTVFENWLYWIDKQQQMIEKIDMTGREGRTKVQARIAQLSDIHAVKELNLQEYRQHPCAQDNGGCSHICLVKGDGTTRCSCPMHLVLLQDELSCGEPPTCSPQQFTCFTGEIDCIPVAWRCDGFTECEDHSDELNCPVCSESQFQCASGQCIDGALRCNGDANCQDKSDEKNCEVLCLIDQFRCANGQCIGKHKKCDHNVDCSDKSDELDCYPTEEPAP
Kind of assay: validated interaction (cell culture potency assay and/or SPR).

The target in assay [2] is T2, mouse LRP6-E1E2 (N-half, AA 20-628) tagged with Fc (mouse IgG2a) (mouse, UniProt O88572 20-628).
T2 construct: not shown: mouse IgG2a Fc
T2 sequence: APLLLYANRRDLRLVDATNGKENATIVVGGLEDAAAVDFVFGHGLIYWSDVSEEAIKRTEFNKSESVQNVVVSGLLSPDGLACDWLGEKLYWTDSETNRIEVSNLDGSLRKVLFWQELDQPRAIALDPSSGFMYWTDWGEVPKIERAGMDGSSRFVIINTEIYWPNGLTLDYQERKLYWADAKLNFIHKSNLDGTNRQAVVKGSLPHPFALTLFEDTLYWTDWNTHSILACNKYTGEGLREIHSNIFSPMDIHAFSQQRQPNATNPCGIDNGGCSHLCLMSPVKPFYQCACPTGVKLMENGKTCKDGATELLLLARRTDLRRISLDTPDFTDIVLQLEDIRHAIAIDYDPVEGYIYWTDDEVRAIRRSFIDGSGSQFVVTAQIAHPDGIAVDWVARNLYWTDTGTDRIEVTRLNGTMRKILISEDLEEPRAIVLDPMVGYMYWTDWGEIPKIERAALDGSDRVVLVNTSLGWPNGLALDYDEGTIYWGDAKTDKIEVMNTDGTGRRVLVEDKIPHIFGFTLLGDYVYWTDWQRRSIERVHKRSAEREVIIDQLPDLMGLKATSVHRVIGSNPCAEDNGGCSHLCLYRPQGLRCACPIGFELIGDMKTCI
Kind of assay: SPR, target-Fc captured on protein A chip, AAV analyte (FIG. 14D).

In assay [3] the target is T3, mouse LRP6-E3E4 (C-half, AA 629-1244) tagged with Fc (mouse IgG2a) (mouse, UniProt O88572 629-1244).
T3 construct: not shown: mouse IgG2a Fc
T3 sequence: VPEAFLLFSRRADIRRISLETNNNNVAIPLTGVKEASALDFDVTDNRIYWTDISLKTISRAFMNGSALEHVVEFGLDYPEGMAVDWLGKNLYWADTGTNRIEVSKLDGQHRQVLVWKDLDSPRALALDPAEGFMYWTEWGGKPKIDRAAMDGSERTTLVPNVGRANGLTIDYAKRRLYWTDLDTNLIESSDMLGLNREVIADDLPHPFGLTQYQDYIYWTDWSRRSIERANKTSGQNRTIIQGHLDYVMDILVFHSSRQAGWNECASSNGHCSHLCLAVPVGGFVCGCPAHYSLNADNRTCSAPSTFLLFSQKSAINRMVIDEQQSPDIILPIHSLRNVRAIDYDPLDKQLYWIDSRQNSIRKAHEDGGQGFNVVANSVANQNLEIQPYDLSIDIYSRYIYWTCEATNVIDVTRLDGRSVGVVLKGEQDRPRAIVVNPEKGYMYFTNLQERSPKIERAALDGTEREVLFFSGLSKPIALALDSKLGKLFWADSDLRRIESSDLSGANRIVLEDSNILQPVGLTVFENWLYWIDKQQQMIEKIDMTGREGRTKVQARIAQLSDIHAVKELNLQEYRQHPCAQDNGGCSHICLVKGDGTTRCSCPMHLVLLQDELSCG
Described as above.

B1: AAV9-X1.1 (other)
chain: MAADGYLPDWLEDNLSEGIREWWALKPGAPQPKANQQHQDNARGLVLPGYKYLGPGNGLDKGEPVNAADAAALEHDKAYDQQLKAGDNPYLKYNHADAEFQERLKEDTSFGGNLGRAVFQAKKRLLEPLGLVEEAAKTAPGKKRPVEQSPQEPDSSAGIGKSGAQPAKKRLNFGQTGDTESVPDPQPIGEPPAAPSGVGSLTMASGGGAPVADNNEGADGVGSSSGNWHCDSQWLGDRVITTSTRTWALPTYNNHLYKQISNSTSGGSSNDNAYFGYSTPWGYFDFNRFHCHFSPRDWQRLINNNWGFRPKRLNFKLFNIQVKEVTDNNGVKTIANNLTSTVQVFTDSDYQLPYVLGSAHEGCLPPFPADVFMIPQYGYLTLNDGSQAVGRSSFYCLEYFPSQMLRTGNNFQFSYEFENVPFHSSYAHSQSLDRLMNPLIDQYLYYLSRTIDGAATKNQTLKFSVAGPSNMAVQGRNYIPGPSYRQQRVSTTVTQNNNSEFAWPGASSWALNGRNSLMNPGPAMASHKEGEDRFFPLSGSLIFGKQGTGRDNVDADKVMITNEEEIKTTNPVATESYGQVATNHQSAQGNNTRSVAQAQTGWVQNQGILPGMVWQDRDVYLQGPIWAKIPHTDGNFHPSPLMGGFGMKHPPPQILIKNTPVPADPPTAFNKDKLNSFITQYSTGQVSVEIEWELQKENSKRWNPEIQYTSNYYKSNNVEFAVNTEGVYSEPRPIGTRYLTRNL
notes: also called AAV-X1.1; X1B10
Take B1: the binding result in assay [1] is reported as “binds”; in assay [2], “binds”; in assay [3] it was “no binding”.

B2: AAV.CAP-Mac (other)
chain: MAADGYLPDWLEDNLSEGIREWWALKPGAPQPKANQQHQDNARGLVLPGYKYLGPGNGLDKGEPVNAADAAALEHDKAYDQQLKAGDNPYLKYNHADAEFQERLKEDTSFGGNLGRAVFQAKKRLLEPLGLVEEAAKTAPGKKRPVEQSPQEPDSSAGIGKSGAQPAKKRLNFGQTGDTESVPDPQPIGEPPAAPSGVGSLTMASGGGAPVADNNEGADGVGSSSGNWHCDSQWLGDRVITTSTRTWALPTYNNHLYKQISNSTSGGSSNDNAYFGYSTPWGYFDFNRFHCHFSPRDWQRLINNNWGFRPKRLNFKLFNIQVKEVTDNNGVKTIANNLTSTVQVFTDSDYQLPYVLGSAHEGCLPPFPADVFMIPQYGYLTLNDGSQAVGRSSFYCLEYFPSQMLRTGNNFQFSYEFENVPFHSSYAHSQSLDRLMNPLIDQYLYYLSRTINGSGQNQQTLKFSVAGPSNMAVQGRNYIPGPSYRQQRVSTTVTQNNNSEFAWPGASSWALNGRNSLMNPGPAMASHKEGEDRFFPLSGSLIFGKQGTGRDNVDADKVMITNEEEIKTTNPVATESYGQVATNHQSAQLNTTKPIAQAQTGWVQNQGILPGMVWQDRDVYLQGPIWAKIPHTDGNFHPSPLMGGFGMKHPPPQILIKNTPVPADPPTAFNKDKLNSFITQYSTGQVSVEIEWELQKENSKRWNPEIQYTSNYYKSNNVEFAVNTEGVYSEPRPIGTRYLTRNL
notes: also called CAP-C1
Take B2: the values for the binding result in assay [1], in assay [2] and in assay [3] were “binds”, “binds” and “no binding”, respectively.

These data come from US20240139329A1 (CALIFORNIA INSTITUTE OF TECHNOLOGY, published 2024).
